Measurements reported in patent publication US6703489 (YALE UNIVERSITY, dated 2004).

B2: Drosophila Serrate, full-length (expression construct Ser-mtn), expressed on Drosophila S2 cells (ligand)
chain: GNFELEILEISNTNSHLLNGYCCGMPAELRATKTIGCSPCTTAFRLCLKEYQTTEQGASISTGCSFGNATTKILGGSSFVLSDPGVGAIVLPFTFRWTKSFTLILQALDMYNTSYPDAERLIEETSYSGVILPSPEWKTLDHIGRNARITYRVRVQCAVTYYNTTCTTFCRPRDDQFGHYACGSEGQKLCLNGWQGVNCEEAICKAGCDPVHGKCDRPGECECRPGWRGPLCNECMVYPGCKHGSCNGSAWKCVCDTNWGGILCDQDLNFCGTHEPCKHGGTCENTAPDKYRCTCAEGLSGEQCEIVEHPCATRPCRNGGTCTLKTSNRTQAQVYRTSHGRSNMGRPVRRSSSMRSLDHLRPEGQALNGSSSSGLVSLGSLQLQQQLAPDFTCDCAAGWTGPTCEINIDECAGGPCEHGGTCIDLIGGFRCECPPEWHGDVCQVDVNECEAPHSAGIAANALLTTTATAIIGSNLSSTALLAALTSAVASTSLAIGPCINAKECRNQPGSFACICKEGWGGVTCAENLDDCVGQCRNGATCIDLVNDYRCACASGFTGRDCETDIDECATSPCRNGGECVDMVGKFNCICPLGYSGSLCEEAKENCTPSPCLEGHCLNTPEGYYCHCPPDRAGKHCEQLRPLCSQPPCNEGCFANVSLATSATTTTTTTTTATTTRKMAKPSGLPCSGHGSCEMSDVGTFCKCHVGHTGTFCEHNLNECSPNPCRNGGICLDGDGDFTCECMSGWTGKRCSERATGCYAGQCQNGGTCMPGAPDKALQPHCRCAPGWTGLFCAEAIDQCRGQPCHNGGTCESGAGWFRCVCAQGFSGPDCRINVNECSPQPCQGGATCIDGIGGYSCICPPGRHGLRCEILLSDPKSACQNASNTISPYTALNRSQNWLDIALTGRTEDDENCNACVCENGTSRCTNLWCGLPNCYKVDPLSKSSNLSGVCKQHEVCVPALSETCLSSPCNVRGDCRALEPSRRVAPPRLPAKSSCWPNQAVVNENCARLTILLALERVGKGASVEGLCSLVRVLLAAQLIKKPASTFGQDPGMLMVLCDLKTGTNDTVELTVSSSKLNDPQLPVAVGLLGELLSSRQLNGIQRRKELELQHAKLAALTSIVEVKLETARVADGSGHSLLIGVLCGVFIVLVGFSVFISLYWKQRLAYRTSSGMNLTPSLDALRHEEEKSNNLQNEENLRRYTNPLKGSTSSLRAATGMELSLNPAPELAASAASSSALHRSQPLFPPCDFERELDSSTGLKQAHKRSSQILLHKTQNSDMRKNTVGSLDSPRKDFGKRSINCKSMPPSSGDEGSDVLATTVMV
notes: also called full-length Serrate

Columns and labels:
[1] = target: B2; assay: cell aggregation assay, S2 cells
[2] = target: the molecule itself; assay: cell aggregation assay, S2 cells

B1: Drosophila Delta, expressed on cells (ligand, Drosophila melanogaster, UniProt P10041 19-833, looked up)
chain: QVHSSGSFELRLKYFSNDHGRDNEGRCCSGESDGATGKCLGSCKTRFRVCLKHYQATIDTTSQCTYGDVITPILGENSVNLTDAQRFQNKGFTNPIQFPFSFSWPGTFSLIVEAWHDTNNSGNARTNKLLIQRLLVQQVLEVSSEWKTNKSESQYTSLEYDFRVTCDLNYYGSGCAKFCRPRDDSFGHSTCSETGEIICLTGWQGDYCHIPKCAKGCEHGHCDKPNQCVCQLGWKGALCNECVLEPNCIHGTCNKPWTCICNEGWGGLYCNQDLNYCTNHRPCKNGGTCFNTGEGLYTCKCAPGYSGDDCENEIYSCDADVNPCQNGGTCIDEPHTKTGYKCHCANGWSGKMCEEKVLTCSDKPCHQGICRNVRPGLGSKGQGYQCECPIGYSGPNCDLQLDNCSPNPCINGGSCQPSGKCICPAGFSGTRCETNIDDCLGHQCENGGTCIDMVNQYRCQCVPGFHGTHCSSKVDLCLIRPCANGGTCLNLNNDYQCTCRAGFTGKDCSVDIDECSSGPCHNGGTCMNRVNSFECVCANGFRGKQCDEESYDSVTFDAHQYGATTQARADGLTNAQVVLIAVFSVAMPLVAVIAACVVFCMKRKRKRAQEKDDAEARKQNEQNAVATMHHNGSGVGVALASASLGGKTGSNSGLTFDGGNPNIIKNTWDKSVNNICASAAAAAAAAAAADECLMYGGYVASVADNNNANSDFCVAPLQRAKSQKQLNTDPTLMHRGSPAGSSAKGASGGGPGAAEGKRISVLGEGSYCSQRWPSLAAAGVAGACSSQLMAAASVAGSGAGTAQQQRSVVCGTPHM
notes: whole, on cells; That entry appears to be only part of Delta, so it was not used for the whole protein on cells; also called Delta expressing cells
binding result [1]: no binding

B2
binding result [2]: no binding
